Measurements as given in PMC11696677 (Communications Biology, 2025).
Where two headings read alike, the source gives them in different places.

T1: WT Kapβ2 (human, UniProt Q92973-2 1-890)
T1 sequence (looked up): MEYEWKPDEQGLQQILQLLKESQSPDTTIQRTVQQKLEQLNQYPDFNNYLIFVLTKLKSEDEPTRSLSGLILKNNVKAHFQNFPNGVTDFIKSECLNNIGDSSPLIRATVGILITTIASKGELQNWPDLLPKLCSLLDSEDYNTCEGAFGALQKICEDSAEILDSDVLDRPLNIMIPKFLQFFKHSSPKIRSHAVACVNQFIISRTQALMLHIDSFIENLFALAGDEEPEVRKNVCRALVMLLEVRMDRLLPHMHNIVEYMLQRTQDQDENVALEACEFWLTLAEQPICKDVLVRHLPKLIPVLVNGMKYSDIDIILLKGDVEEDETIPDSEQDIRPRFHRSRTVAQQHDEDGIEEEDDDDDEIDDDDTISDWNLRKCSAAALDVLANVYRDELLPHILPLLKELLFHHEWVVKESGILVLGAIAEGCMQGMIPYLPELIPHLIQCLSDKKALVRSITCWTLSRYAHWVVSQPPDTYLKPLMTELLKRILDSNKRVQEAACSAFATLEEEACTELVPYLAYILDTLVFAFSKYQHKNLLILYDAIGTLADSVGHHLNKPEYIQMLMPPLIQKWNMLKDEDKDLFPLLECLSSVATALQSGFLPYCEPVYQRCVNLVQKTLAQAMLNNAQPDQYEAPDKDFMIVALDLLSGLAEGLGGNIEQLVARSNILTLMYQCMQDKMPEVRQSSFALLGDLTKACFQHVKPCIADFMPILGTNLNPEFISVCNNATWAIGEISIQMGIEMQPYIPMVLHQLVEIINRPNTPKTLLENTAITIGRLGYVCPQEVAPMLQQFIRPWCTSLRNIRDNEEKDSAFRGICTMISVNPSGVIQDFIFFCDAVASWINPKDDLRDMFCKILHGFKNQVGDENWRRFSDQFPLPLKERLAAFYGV

T2: TAMRA-(GR)20 (TAMRA label (position not given))
T2 peptide: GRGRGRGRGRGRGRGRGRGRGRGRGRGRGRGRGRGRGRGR

T3: TAMRA-(PR)20 (TAMRA label (position not given))
T3 peptide: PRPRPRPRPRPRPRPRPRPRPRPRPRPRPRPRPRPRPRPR

B1: Kapβ2_(W460A:W730A) (receptor, human, UniProt Q92973-2 1-890, looked up)
chain: MEYEWKPDEQGLQQILQLLKESQSPDTTIQRTVQQKLEQLNQYPDFNNYLIFVLTKLKSEDEPTRSLSGLILKNNVKAHFQNFPNGVTDFIKSECLNNIGDSSPLIRATVGILITTIASKGELQNWPDLLPKLCSLLDSEDYNTCEGAFGALQKICEDSAEILDSDVLDRPLNIMIPKFLQFFKHSSPKIRSHAVACVNQFIISRTQALMLHIDSFIENLFALAGDEEPEVRKNVCRALVMLLEVRMDRLLPHMHNIVEYMLQRTQDQDENVALEACEFWLTLAEQPICKDVLVRHLPKLIPVLVNGMKYSDIDIILLKGDVEEDETIPDSEQDIRPRFHRSRTVAQQHDEDGIEEEDDDDDEIDDDDTISDWNLRKCSAAALDVLANVYRDELLPHILPLLKELLFHHEWVVKESGILVLGAIAEGCMQGMIPYLPELIPHLIQCLSDKKALVRSITCATLSRYAHWVVSQPPDTYLKPLMTELLKRILDSNKRVQEAACSAFATLEEEACTELVPYLAYILDTLVFAFSKYQHKNLLILYDAIGTLADSVGHHLNKPEYIQMLMPPLIQKWNMLKDEDKDLFPLLECLSSVATALQSGFLPYCEPVYQRCVNLVQKTLAQAMLNNAQPDQYEAPDKDFMIVALDLLSGLAEGLGGNIEQLVARSNILTLMYQCMQDKMPEVRQSSFALLGDLTKACFQHVKPCIADFMPILGTNLNPEFISVCNNATAAIGEISIQMGIEMQPYIPMVLHQLVEIINRPNTPKTLLENTAITIGRLGYVCPQEVAPMLQQFIRPWCTSLRNIRDNEEKDSAFRGICTMISVNPSGVIQDFIFFCDAVASWINPKDDLRDMFCKILHGFKNQVGDENWRRFSDQFPLPLKERLAAFYGV

What was measured:
Experiment in all cases: fluorescence polarisation
[1] = biological target: B1
[2] = biological target: T1, WT Kapβ2
[3] = biological target: T2, TAMRA-(GR)20
[4] = biological target: T3, TAMRA-(PR)20
[5] = biological target: T2, TAMRA-(GR)20
[6] = biological target: T3, TAMRA-(PR)20

Kd [1] [nM]	Kd [2] [nM]	affinity relative to that of FUS for Kapβ2_(W460A:W730A) [3] [times]	affinity relative to that of FUS for Kapβ2_(W460A:W730A) [4] [times]	affinity relative to that of FUS for Kapβ2_(W460A:W730A) [5] [times]	affinity relative to that of FUS for Kapβ2_(W460A:W730A) [6] [times]	Binder
124 ± 58.5	39.6 ± 17.7					FUS-GFP (natural protein, UniProt P35637 1-526, looked up) MASNDYTQQATQSYGAYPTQPGQGYSQQSSQPYGQQSYSGYSQSTDTSGYGQSSYSSYGQSQNTGYGTQSTPQGYGSTGGYGSSQSSQSSYGQQSSYPGYGQQPAPSSTSGSYGSSSQSSSYGQPQSGSYSQQPSYGGQQQSYGQQQSYNPPQGYGQQNQYNSSSGGGGGGGGGGNYGQDQSSMSSGGGSGGGYGNQDQSGGGGSGGYGQQDRGGRGRGGSGGGGGGGGGGYNRSSGGYEPRGRGGGRGGRGGMGGSDRGGFNKFGGPRDQGSRHDSEQDNSDNNTIFVQGLGENVTIESVADYFKQIGIIKTNKKTGQPMINLYTDRETGKLKGEATVSFDDPPSAKAAIDWFDGKEFSGNPIKVSFATRRADFNRGGGNGRGGRGRGGPMGRGGYGGGGSGGGGRGGFPSGGGGGGGQQRAGDWKCPNPTCENMNFSWRNECNQCKAPKPDGPGGGPGGSHMGGNYGDDRRGGRGGYDRGGYRGRGGDRGGFRGGRGGGDRGGFGPGKMDSRGEHRQDRRERPY
		~3	~3	~1.5	~1.5	B1
